Where a chain is given by its changes, count along the chain named. Names and notes keep the numbering of the source.
B1: GFP-Rap1b (G12V), loaded with GMP-PNP (natural protein, human, UniProt P61224 1-184, looked up)
chain: MREYKLVVLGSVGVGKSALTVQFVQGIFVEKYDPTIEDSYRKQVEVDAQQCMLEILDTAGTEQFTAMRDLYMKNGQGFALVYSITAQSTFNDLQDLREQILRVKDTDDVPMILVGNKCDLEDERVVGKEQGQNLARQWNNCAFLESSAKSKINVNEIFYDLVRQINRKTPVPGKARKKSSCQLL
notes: Rap1b (G12V) in a pRSET vector; The name puts GFP first, the methods call it a C-terminal GFP fusion tag; also called GMP-PNP-loaded GFP-Rap1b (G12V); not shown: GFP, C-terminal, kept
B2: membrane-anchored Rap1b_TM2 (G12V, C51S, C118S, C141S), loaded with GMP-PNP (natural protein, human, UniProt P61224 1-184, looked up)
chain: B1 chain with C51S, C118S, C141S
modifications: thiol group of Cys 180 joined to the maleimide group of the lipid PE MCC in vesicles
notes: Rap1b, human, with G12V, C51S, C118S, C141S; holds the C-terminal Cys 180 (so in the source); LUVs: 96% POPC, 1% PIP2, 3% PE MCC; MLVs: 87% POPC, 10% PIP2, 3% PE MCC; also called LUV-Rap1b; LUV-Rap1b (GMP-PNP); source: E. coli BL21 (DE3), purified, then tethered to vesicles (LUVs or MLVs) by thiol-maleimide crosslinking
B3: Rap1b (G12V), GMP-PNP loaded, of the GST pull-down of Fig. 3b (natural protein, human, UniProt P61224 1-184, looked up)
chain: B1 chain
notes: human full-length Rap1b in a pGST-1 vector, with G12V as the active form; also called active Rap1b
B4: mouse talin-F0 (1–86) (domain or fragment, UniProt P26039 1-86, looked up)
chain: MVALSLKISIGNVVKTMQFEPSTMVYDACRMIRERIPEALAGPPNDFGLFLSDDDPKKGIWLEAGKALDYYMLRNGDTMEYRKKQR
notes: talin (talin-1), mouse, F0 domain, residues 1-86; Isotope labelled or unlabelled as the NMR sample needed; also called F0 domain of talin
B5: C-terminal truncated Rap1b (1–167, G12V), loaded with GMP-PNP (domain or fragment, human, UniProt P61224 1-167, looked up)
chain: MREYKLVVLGSVGVGKSALTVQFVQGIFVEKYDPTIEDSYRKQVEVDAQQCMLEILDTAGTEQFTAMRDLYMKNGQGFALVYSITAQSTFNDLQDLREQILRVKDTDDVPMILVGNKCDLEDERVVGKEQGQNLARQWNNCAFLESSAKSKINVNEIFYDLVRQINR
notes: Rap1b, human, residues 1-167, G12V, in pET28t; Loaded with GMP-PNP; isotope labelled or unlabelled as the NMR sample needed; The removal of the tag is told for the assignment samples; not shown: His6, N-terminal, cleaved
B6: mouse RIAM-RAPH (149–438) (domain or fragment)
chain: PELLSKEEEEAKAKADKIKLALEKLKEAKVKKLVVKVHMDDSSTKSLMVDERQLARDVLDNLFEKTHCDCNVDWCLYEIYPELQIERVFEDHENVVEVLSDWTRDTENKVLFLEKEERYAVFKNPQNFYLDNKGKKENKETNEKMNAKNKEYLLEESFCGTSIIVPELEGALYLKEDGKKSWKRRYFLLRASGIYYVPKGKTKTSRDLACFIQFENVNIYYGIQCKMKYKAPTDHCFVLKHPQIQKESQYIKYLCCDDARTLSQWVMGIRIAKYGKTLYDNYQRAVARAG
B7: mouse talin-H (1–429) (domain or fragment, UniProt P26039 1-429, looked up)
chain: MVALSLKISIGNVVKTMQFEPSTMVYDACRMIRERIPEALAGPPNDFGLFLSDDDPKKGIWLEAGKALDYYMLRNGDTMEYRKKQRPLKIRMLDGTVKTIMVDDSKTVTDMLMTICARIGITNHDEYSLVRELMEEKKDEGTGTLRKDKTLLRDEKKMEKLKQKLHTDDELNWLDHGRTLREQGVEEHETLLLRRKFFYSDQNVDSRDPVQLNLLYVQARDDILNGSHPVSFDKACEFAGFQCQIQFGPHNEQKHKAGFLDLKDFLPKEYVKQKGERKIFQAHKNCGQMSEIEAKVRYVKLARSLKTYGVSFFLVKEKMKGKNKLVPRLLGITKECVMRVDEKTKEVIQEWSLTNIKRWAASPKSFTLDFGDYQDGYYSVQTTEGEQIAQLIAGYIDIILKKKKSKDHFGLEGDEESTMLEDSVSPKKS
notes: talin (talin-1), mouse, head domain, residues 1-429; Talin-H was cloned into pET28t and into pGST-1; also called talin head domain

How the values were obtained:
[1] = target: membrane-anchored Rap1b_TM2 (G12V, C51S, C118S, C141S), loaded with GMP-PNP (human) (UniProt P61224); assay: co-sedimentation; vesicle co-sedimentation: 10 μM talin-H or full-length talin with 10 μM MLV-Rap1b, MLV only or MLV + Rap1b; RT 15 min, 22,000 r.p.m. 35 min; pellet on SDS-PAGE, band normalized to MLV only
[2] = target: T1, mouse RIAM-RAPH (149–438) (mouse, UniProt Q8R5A3 149-438); assay: MST; 100 nM GFP-Rap1b (G12V) with serial dilutions of the partner; 50 mM Tris-HCl pH 7.5, 100 mM NaCl, 5 mM MgCl2, 2 mM DTT, 0.05% Tween 20; RT; settings: both partners purified
T1 construct: RIAM, mouse, RA-PH domains, residues 149-438
T1 sequence (looked up): B6 chain

mouse talin-H (1–429) [3] = target: B7; assay: ITC; 200 μM talin-H in the syringe into 15 μM LUV-Rap1b (GMP-PNP) in the cell; 25 °C; 25 mM NaH2PO4/Na2HPO4 pH 6.8, 100 mM NaCl, 5 mM MgCl2; single-site model; settings: both partners purified
mouse talin-H (1–429) [4] = target: B7; assay: pull-down; GST pull-down of Fig. 3b, Rap1b with GDP or GTP analog; ~25 μg GST-fused protein on glutathione-Sepharose 4B, 4 °C, 25 mM Tris-HCl pH 7.5, 150 mM NaCl, 5 mM MgCl2, 1 mM DTT, 0.01% NP-40; settings: both partners purified
mouse full-length talin [5] = target: T2, mouse full-length talin (mouse, UniProt P26039 1-2541); assay: as above; settings: both partners purified
T2 construct: talin (talin-1), mouse, full length, in pET28t

[6] = target: T3, GFP-Rap1b (G12V), loaded with GMP-PNP (human, UniProt P61224 1-184, G12V); assay: MST; GMP-PNP loaded
[7] = target: T4, Rap1b (G12V), loaded with GMP-PNP (active form) (human, UniProt P61224 1-184, G12V); assay: NMR titration; HSQC titration of 45 μM 15N-labeled talin-F0 with increasing GMP-PNP-loaded Rap1b (G12V); average Kd of four residues; settings: both partners purified
T4 construct: Rap1b, human, with G12V; Loaded with the GTP analog GMP-PNP; Made by mutagenesis; Probably full length; also called active Rap1b; GMP-PNP loaded Rap1b
T4 sequence (looked up): B1 chain

mouse talin-H (1–429) [8] = target: B7; assay: NMR titration; 2D HSQC of 45 μM GMP-PNP loaded 15N-labeled Rap1b (1–167) without and with 90 or 225 μM talin-F0, 90 μM talin-H or 45 μM full-length talin; 25 °C; 25 mM NaH2PO4/Na2HPO4 pH 6.8, 150 mM NaCl, 5 mM MgCl2, 2 mM DTT; settings: both partners purified
mouse full-length talin [9] = target: T2, mouse full-length talin; assay: as above; settings: both partners purified
[10] = target: membrane-anchored Rap1b_TM2 (G12V, C51S, C118S, C141S), loaded with GMP-PNP (human, UniProt P61224 1-184, G12V | C51S | C118S | C141S, thiol group of Cys 180 joined to the maleimide group of the lipid PE MCC in vesicles); assay: ITC; LUV-anchored Rap1b, GMP-PNP; 2nd experiment
[11] = target: T3, GFP-Rap1b (G12V), loaded with GMP-PNP; assay: MST; GMP-PNP loaded; estimated, saturation not reached
[12] = target: B2; assay: co-sedimentation; vesicle co-sedimentation: 10 μM talin-H or full-length talin with 10 μM MLV-Rap1b, MLV only or MLV + Rap1b; RT 15 min, 22,000 r.p.m. 35 min; pellet on SDS-PAGE, band normalized to MLV only; settings: both partners purified

Molecule: mouse full-length talin, P26039 1-2541
- fold co-sedimentation with vesicles, Rap1b anchored against MLV only [1]: 3 fold

Molecule: B1
- binding result [2]: binds

Molecule: B2
- Kd (mouse talin-H (1–429) [3]): ~1.52 µM

Molecule: B3
- binding result (mouse talin-H (1–429) [4]): binds
- binding result (mouse full-length talin [5]): binds

Molecule: B4
- Kd [6]: 237 µM
- Kd [7]: ~162 µM

Molecule: B5
- binding result (mouse talin-H (1–429) [8]): binds
- binding result (mouse full-length talin [9]): binds

Molecule: B6
- Kd [6]: 5.3 µM

Molecule: B7
- Kd [10]: 3.64 µM
- Kd [11]: ~147 µM
- fold co-sedimentation with vesicles, Rap1b anchored against MLV only [12]: ~1.5 fold

— publication PMC5701058, “Structure of Rap1b bound to talin reveals a pathway for triggering integrin activation” (Nature Communications, 2017)
